Experimental data published in publication PMC8265735 (Biopolymers, 2021).
Where two headings read alike, the source gives them in different places.

Legend:
SAXS [1] = target: the molecule itself; assay: SAXS
SAXS [2] = target: the molecule itself; assay: SAXS; remark: listed apart in the source

B1: Hemoglobin III (HbIII) from Lucina pectinata, oxy form (natural protein, Lucina pectinata (Phacoides pectinatus), UniProt P41262 1-153, looked up)
chain: MSSGLTGPQKAALKSSWSRFMDNAVTNGTNFYMDLFKAYPDTLTPFKSLFEDVSFNQMTDHPTMKAQALVFCDGMSSFVDNLDDHEVLVVLLQKMAKLHFNRGIRIKELRDGYGVLLRYLEDHCHVEGSTKNAWEDFIAYICRVQGDFMKERL
SAXS [1]
  stoichiometry N: 4
SAXS [2]
  stoichiometry N: 2
